From publication PMC13278974, “Nucleophagy removes cytotoxic trapped PARP1” (Nature Cell Biology, 2026) come the findings set out here.

The test has as its target T1, His–PARP1, full length, recombinant (called GFP-PARP1 / PARP1–GFP in the results and legend) (UniProt P09874 1-1014).
T1 construct: PARP1, full length, cloned into NcoI and BamHI sites of pNIC28; The methods describe only His–PARP1 from pNIC28 with no GFP; Whether GFP was on the protein is open; It was held on PARP1-trap beads; also called pNIC28–PARP1; source: E. coli Rosetta (DE3), purified (HisTrap, SEC Superdex 200)
Put plainly: pull-down; PARP1 (2.5 µM) held on PARP1-trap beads, TEX264 (2.5 µM) added in 50 mM HEPES pH 7.4, 500 mM NaCl, 0.01% Triton X-100, 1 mM TCEP, 2 h at 4 °C; washes with 0.1% Triton X-100; western blot. To be noted: both partners purified. In general terms: A western blot detects proteins with antibodies after separation by electrophoresis.

T1 sequence (P09874 whole entry): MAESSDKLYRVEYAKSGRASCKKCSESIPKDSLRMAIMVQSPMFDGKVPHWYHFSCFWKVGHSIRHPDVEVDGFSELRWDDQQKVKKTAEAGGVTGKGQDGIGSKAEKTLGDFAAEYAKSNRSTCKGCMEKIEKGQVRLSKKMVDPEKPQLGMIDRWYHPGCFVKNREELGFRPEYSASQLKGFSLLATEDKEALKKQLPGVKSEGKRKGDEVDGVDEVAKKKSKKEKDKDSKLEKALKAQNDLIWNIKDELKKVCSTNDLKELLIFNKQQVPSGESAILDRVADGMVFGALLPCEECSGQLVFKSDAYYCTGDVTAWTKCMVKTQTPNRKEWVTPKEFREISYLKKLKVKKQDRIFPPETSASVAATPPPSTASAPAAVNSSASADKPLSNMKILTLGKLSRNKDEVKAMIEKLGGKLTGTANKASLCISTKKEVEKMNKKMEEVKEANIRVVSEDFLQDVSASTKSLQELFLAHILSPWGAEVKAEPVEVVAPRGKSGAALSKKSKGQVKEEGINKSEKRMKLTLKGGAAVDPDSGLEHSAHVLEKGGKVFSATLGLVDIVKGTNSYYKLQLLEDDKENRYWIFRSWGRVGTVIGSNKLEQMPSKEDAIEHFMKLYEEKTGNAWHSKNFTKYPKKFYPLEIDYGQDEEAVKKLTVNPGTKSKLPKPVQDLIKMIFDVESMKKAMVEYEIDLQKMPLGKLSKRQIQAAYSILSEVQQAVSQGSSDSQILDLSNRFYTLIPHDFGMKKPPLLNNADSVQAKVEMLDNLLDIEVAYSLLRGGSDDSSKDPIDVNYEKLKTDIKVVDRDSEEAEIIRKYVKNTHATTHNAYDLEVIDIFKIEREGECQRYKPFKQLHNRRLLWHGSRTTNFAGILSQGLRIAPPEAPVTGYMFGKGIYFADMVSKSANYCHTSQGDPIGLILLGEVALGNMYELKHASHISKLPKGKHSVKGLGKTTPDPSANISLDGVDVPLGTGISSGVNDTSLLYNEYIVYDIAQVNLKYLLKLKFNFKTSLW

B1: His–TEX264–Cter (186-313) (domain or fragment, UniProt Q9Y6I9 186-313, looked up)
chain: RQGDFYVPEMKETEWKWRGLVEAIDTQVDGTGADTMSDTSSVSLEVSPGSRETSAATLSPGASSRGWDDGDTRSEHSYSESGASGSSFEELDLEGEGPLGESRLDPGTEPLGTTKWLWEPTAPEKGKE
notes: also called C-terminal half of TEX264; variant 2
Consider B1, for which the binding result is listed as “binds”.

B2: His–TEX264 (34-313) (domain or fragment, UniProt Q9Y6I9 34-313, looked up)
chain: VEVSAGSPPIRNVTVAYKFHMGLYGETGRLFTESCSISPKLRSIAVYYDNPHMVPPDKCRCAVGSILSEGEESPSPELIDLYQKFGFKVFSFPAPSHVVTATFPYTTILSIWLATRRVHPALDTYIKERKLCAYPRLEIYQEDQIHFMCPLARQGDFYVPEMKETEWKWRGLVEAIDTQVDGTGADTMSDTSSVSLEVSPGSRETSAATLSPGASSRGWDDGDTRSEHSYSESGASGSSFEELDLEGEGPLGESRLDPGTEPLGTTKWLWEPTAPEKGKE
notes: the printed UniProt entry Q9Y6I9 is the human protein; The longest recombinant TEX264 described in the methods; also called TEX264^WT (variant 1); source: E. coli Rosetta (DE3), pCold cold shock system, purified (HiTrap Q FF, SEC Superdex 200)
For B2, the binding result is listed as “binds”.
